# Measured values taken from US7670806B2, “ADP-ribosyl acceptor hydrolase 3 (ARH3) polypeptides and methods of use” (The United States of America as represented by the …, priority 2005, dated 2010).
# Entries after “also recorded” stand apart in the source; their conditions may differ.
# Test: Poly(ADP-ribose) hydrolysis (autoradiography, high resolution PAGE, HPLC)
# Assay type: biochemical
# Settings: [32P]poly(ADP-ribose) or poly(ADP-ribose)PARP; 37° C.; autoradiography / PAGE / HPLC
# Procedure: Poly(ADP-ribose) hydrolysis by autoradiography. [^32P]poly(ADP-ribose)PARP (500 ng of PARP with poly(ADP-ribose) was incubated (37° C., 2 h) with 2 μM ARH in 25 μl of 50 mM potassium phosphate buffer, pH 7.5, with or without 10 mM MgCl2 and/or 5 mM DTT. Reactions were stopped by adding 6 μl of 5× Laemmli buffer. Samples (20 μl) of proteins were separated by SDS-PAGE in 4-20% gels and transferred to nitrocellulose membranes that were exposed to X-ray film (Kodak) for 10 h.
# Hydrolysis of poly(ADP-ribose) by PARG and ARH3. Purified [^32P] poly(ADP-ribose) (5.5×10^5 cpm, ˜300 nM ADP-ribose) was incubated for the indicated time at 37° C. in 25 μl of 50 mM potassium phosphate, pH 7.5, containing 10 mM MgCl2 and 5 mM DTT with enzyme or other additions as indicated and terminated by addition of 25 μl of 2× electrophoresis buffer (Invitrogen). [^32P]AMP was generated by incubation (37° C., 3 h) of 10 μM [^32P] NAD (10 μCi/reaction) with pyrophosphatase (40 units/mg from SIGMA, 1 mg/ml) in 25 μl of 50 mM KPO4, pH 7.5, and 10 mM MgCl2. [^32P] ADP-ribose was generated in a 25 μl mixture containing 50 mM KPO4, pH 7.5, 25 μg of activated CTA, 10 μM [^32P] NAD (10 μCi/reaction), 10 mM MgCl2, and 5 mM DTT, which was incubated at 30° C. overnight. [^32P] phosphoribosyl-AMP was generated by incubation (37° C., 3 h) of [^32P]poly(ADP-ribose) (5.5×10^5 cpm, ˜300 nM ADP-ribose) with Crotalus adamanteus phosphodiesterase (10 mU/reaction), 25 μl of 50 mM KPO4, pH 7.5, 10 mM MgCl2, and 5 mM DTT. Identities of AMP and ADP-ribose standards were confirmed by HPLC on C18 and SAX columns respectively.
# High resolution Polyacrylamide Gel Electrophoresis (PAGE). Polyacrylamide (20%) gels (20×20×0.15 cm) containing polyacrylamide and bis(acrylamide), in a ratio of 19:1, 100 mM Tris-borate, pH 8.3, 2 mM EDTA, 4.4 mM ammonium persulfate, and 3.4 mM TEMED with electrophoresis carried out for 2 h at 400V with 50 mM Tris-borate, pH 8.3, 1 mM EDTA, before application of samples (15 μl) were used for analysis of poly(ADP-ribose) degradation. Subsequent electrophoresis at 400V was stopped when bromophenol blue (BPB) had moved 9 cm from the origin. Gels were exposed to X-ray films (Kodak).
# HPLC analysis. HPLC, Hewlett-Packard series 1100 equipped with a diode-array spectrophotometric detector set at 254 nm, was used for separation of reaction products. For anion exchange perfusion chromatography, Zorbax SAX column (4.6×250 mm; DuPont, Wilmington Del.) was washed with 20 mM potassium phosphate, pH 4.5, for 30 min, followed by a linear gradient of 0-1M NaCl in the same buffer for 10 min (30-40 min), then same buffer with 1M NaCl for 10 min (40-50 min) at a flow rate of 1 ml/min. Nicotinamide was eluted at 3 min, NAD at 10 min, and ADP-ribose at 40 min. For reverse phase, Discovery C18 column (4.6×250 mm; SUPELCO, Bellefonte Pa.) was used. Samples were separated isocratically with 100 mM potassium phosphate, pH 6.0 containing 7% methanol at a same flow rate of 1 ml/min. ADP-ribose was eluted at 6 min, NAD at 8 min, nicotinamide 9 min.
# Poly(ADP-ribose)PARP was used as substrate to assay potential poly(ADP-ribose) hydrolase activities of recombinant ARH1, 2 or 3. Products were identified by autoradiography and HPLC. Fractions (1 ml) were collected for liquid scintillation counting to quantify [^14C]ADP-ribose, which was eluted in fractions from 34 min to 43 min. Because ARH1 activity may require both DTT and Mg^2+, depending on species (Takada et al. (1993) J. Biol. Chem. 268:17837-17843; Moss et al. (1992) J. Biol. Chem. 267:10481-10488), these reactions were performed with or without 10 mM MgCl2, and/or 5 mM DTT. […] Degradation of [^32P]poly(ADP-ribose) by ARH3 was enhanced by 10 mM MgCl2 (FIG. 4A). Data were similar with mouse ARH3.
# Samples of [^14C] ADP-ribosylated PARP (250 ng, 15,000 cpm, ˜850 nM ADP-ribose) were incubated at 37° C. (total volume, 100 μl) with human ARH3 as indicated. […]
molecule,measurement,value
ARH3 (D77N/D78N): human ARH3 mutant with dual amino acid replacement D77N/D78N (protein) MAAAAMAAAAGGGAGAARSLSRFRGCLAGALLGDCVGSFYEAHDTVDLTSVLRHVQSLEPDPGTPGSERTEALYYTNNTAMARALVQSLLAKEAFDEVDMAHRFAQEYKKDPDRGYGAGVVTVFKKLLNPKCRDVFEPARAQFNGKGSYGNGGAMRVAGISLAYSSVQDVQKFARLSAQLTHASSLGYNGAILQALAVHLALQGESSSEHFLKQLLGHMEDLEGDAQSVLDARELGMEERPYSSRLKKIGELLDQASVTREEVVSELGNGIAAFESVPTAIYCFLRCMEPDPEIPSAFNSLQRTLIYSISLGGDTDTIATMAGAIAGAYYGMDQVPESWQQSCEGYEETDILAQSLHRVFQKS,Poly(ADP-ribose) hydrolysis (in words),inactive; also recorded: No activity
